How the values were obtained:
NADP/thioredoxin system = NADP/thioredoxin system (Escherichia coli, UniProt P0AA25)
Method: (§1) Direct reduction of the proteins under study was determined by a modification of the method of Crawford et al. (Crawford, N. A. et al. (1989), Arch. Biochem. Biophys. 271:223-239). The reaction was carried out in 100 mM potassium phosphate buffer, pH 7.1, containing 10 mM EDTA and 16% glycerol in a final volume of 0.1 ml. As indicated, 0.7 μg (0.1 μM) NTR and 1 μg (0.8 μM) thioredoxin (both routinely from E. coli were added to 70 μl of the buffer solution containing 1 mM NADPH and 10 μg (2 to 17 μM) of target protein. When thioredoxin was reduced by dithiothreitol (DTT, 0.5 mM), NADPH and NTR were omitted. Assays with reduced glutathione were performed similarly, but at a final concentration of 1 mM. After incubation for 20 min, 100 nmoles of mBBr were added and the reaction was continued for another 15 min. To stop the reaction and derivatize excess mBBr, 10 μl of 10% SDS and 10 μl of 100 mM β-mercaptoethanol were added and the samples were then applied to the gels. In the case of reduction by glutaredoxin, the thioredoxin and NTR were replaced by 1 μg (0.8 μM) E. coli glutaredoxin, 1.4 μg (0.14 μM) glutathione reductase purified from spinach leaves (Florencio, F. J. et al. (1988), Arch. Biochem. Biophys. 266:496-507) and 1.5 mM NADPH was used.

glutaredoxin = target: T1, glutaredoxin (Escherichia coli, UniProt P68688); test: Reduction by glutaredoxin relative to thioredoxin (mBBr/SDS-PAGE, densitometric scanning); assay type: biochemical; settings: glutathione reductase, NADPH
T1 construct: gift of Professor A. Holmgren
T1 sequence (P68688 1-85): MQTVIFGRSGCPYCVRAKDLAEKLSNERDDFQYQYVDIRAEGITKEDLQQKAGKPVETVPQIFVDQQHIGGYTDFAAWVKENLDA
Method: as §1, with “In the case of reduction by glutaredoxin, the thioredoxin and NTR were replaced by 1 μg (0.8 μM) E. coli glutaredoxin, 1.4 μg (0.14 μM) glutathione reductase purified from spinach leaves (Florencio, F. J. et al. (1988), Arch. Biochem. Biophys. 266:496-507) and 1.5 mM NADPH was used.” left out
This ability was tested, using glutaredoxin from E. coli and the seed proteins currently under study. Reduction activity was monitored by the mBBr/SDS polyacrylamide gel electrophoresis procedure coupled with densitometric scanning.

trypsin [1] = target: T2, trypsin (Bos taurus, UniProt P00760); test: Trypsin inhibition assay after reduction of the inhibitors; assay type: biochemical
T2 construct: purchased Sigma Chemical Co. (St. Louis, Mo.) T8640
T2 sequence (P00760 24-246): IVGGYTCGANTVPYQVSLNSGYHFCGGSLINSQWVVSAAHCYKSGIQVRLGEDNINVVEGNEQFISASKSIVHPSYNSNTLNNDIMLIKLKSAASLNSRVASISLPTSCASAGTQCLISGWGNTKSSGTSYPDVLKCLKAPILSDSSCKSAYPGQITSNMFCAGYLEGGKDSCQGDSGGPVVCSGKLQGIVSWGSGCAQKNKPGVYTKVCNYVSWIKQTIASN
Method: (§2) Unless indicated, the reduction of the trypsin inhibitors (0.4 mg/ml) was carried out in 0.1 ml of 20 mM sodium phosphate buffer, pH 7.9 containing 10 mM EDTA at 30° C. for 2 hours. The concentrations of thioredoxin, NTR, and NADPH were 0.024 mg/ml, 0.02 mg/ml, and 0.25 mM, respectively. […] Following reduction, aliquots of the inhibitor mixture were withdrawn either for determination of trypsin inhibitory activity or proteolytic susceptibility. In the subtilisin tests, the inhibitor mixture (50 μl) was directly mixed with subtilisin and incubated at room temperature for 1 hour. With the wheat protease preparation, the pH of the inhibitor mixture (50 μL) was first adjusted to 4.7 by mixing with 35 μl of 200 mM sodium acetate, pH 4.6; 10 μl of the wheat protease preparation was then added and incubation was continued for 2 hours at 37° C. To stop digestion with subtilisin, 2 μl of 100 mM phenylmethylsulfonyl fluoride (PMSF) and 10 μl of 10% SDS were added to the digestion mixture. With the plant protease preparation, digestion was stopped by adding an equal volume of SDS sample buffer [0.125 M Tris-HCl, pH 6.8, 4% (w/v) SDS, 20% (v/v) glycerol, 10% (v/v) β-mercaptoethanol, and 0.02% (w/v) bromophenol blue]. Proteolytic products were analyzed by electrophoresis with 12% or 16% SDS polyacrylamide slab gels (Laemmli, 1970). The dried slab gels were scanned with a laser densitometer (Pharmacia-LKB UltraScan XL) and the peak area of the KTI or BBTI protein band was obtained by integration with a Pharmacia GelScan XL software program.
(§3) Thioredoxin and NTR were assayed as previously described by Florencio et al. (1988). Trypsin activity was measured in 50 mM Tris-HCl, pH 7.9, by following the increase in absorbance at 253 nm with N-benzoyl-L-arginine ethyl ester as substrate (Mundy et al., 1984) or by the release of azo dye into the trichloroacetic acid (TCA)-soluble fraction from azocasein substrate (see below). For trypsin inhibition assays, trypsin (5 to 10 μg) was preincubated with appropriate amounts of KTI or BBTI for 5 minutes at room temperature in 50 mM Tris-HCl, pH 7.9 and proteolytic activity was then determined. While the two substrates yielded similar data, results are presented with only one substrate.
To determine the consequence of reduction by thioredoxin, the trypsin inhibitory activity of the oxidized and reduced forms of KTI and BBTI was compared. […] Similar results were obtained with DTT, a nonphysiological substitute for thioredoxin, and with thioredoxin reduced by lipoic acid, a naturally occurring dithiol.

trypsin [2] = target: T2, trypsin; test: Heat stability of trypsin inhibitors (trypsin activity, azocasein); assay type: biochemical
Method: as §2, §3
The question arises as to whether reduction by thioredoxin yields similar results. The results as shown in TABLE XII provide a positive answer to this question. When heated at 80° C. for 15 minutes, the thioredoxin-reduced form of KTI completely lost its ability to inhibit trypsin, whereas its oxidized counterpart retained about half of the original activity (Table XII). […] Nonetheless, as with KTI, the reduced form of BBTI was fully inactivated by heat (Table XII). […]

B1: Soybean Kunitz: Kunitz soybean trypsin inhibitor (protein, UniProt P01070 25-205, looked up)
Trypsin inhibitor A: DFVLDNEGNPLENGGTYYILSDITAFGGIRAAPTGNERCPLTVVQSRNELDKGIGTIISSPYRIRFIAEGHPLSLKFDSFAVIMLCVGIPTEWSVVEDLPEGPAVKIGENKDAMDGWFRLERVSDDEFNNYKLVFCPQQAEDDKCGDIGISIDHDDGTRRLVVSKNKPLVVQFQKLDKESL
NADP/thioredoxin system
  % Reduction After 20 min: 14%
  % Reduction After 120 min: 22%
glutaredoxin
  percentage reduction relative to E. coli thioredoxin: ineffective
Trypsin [1]
  increase in trypsin activity effected by the NADP/thioredoxin system: 3 fold
Trypsin [1]; DTT 1 mM, 30° C., 1 hour, no inhibitor = 100
  Relative Trypsin Activity, inhibitor Reduced by DTT: 68.6
Trypsin [1]; E. coli NTS, 30° C., 2 hours, no inhibitor = 100
  Relative Trypsin Activity, inhibitor Reduced by NTS: 55.6
Trypsin [1]; lipoic acid 0.4 mM and wheat thioredoxin h, 30° C., 1 hour
  Relative Trypsin Activity, inhibitor Reduced by LA/Trx h: 40.5
Trypsin [1]; no inhibitor = 100, N-benzoyl-L-arginine ethyl ester
  Relative Trypsin Activity, inhibitor Oxidized: 17.0
Trypsin [2]
  Relative Trypsin Activity, inhibitor heated 15 min at 80° C., Oxidized: 52.3
  Relative Trypsin Activity, inhibitor heated 15 min at 80° C., Reduced: 98.7
  Relative Trypsin Activity, inhibitor unheated, Reduced: 76.4
Trypsin [2]; no inhibitor = 100, azocasein
  Relative Trypsin Activity, inhibitor unheated, Oxidized: 26.6

— patent US6677433B2 (The Regents of the University of California, priority 2001, dated 2004)
